Results reported in US20140179593A1 (published 2014).
Positions of bridges follow the written chain, without caps; N, C: chain ends. Non-standard residues stand in square brackets, D forms with d. *: point of attachment. S5 = C=CCCC[C@](C)(N)C(=O)O; Nle = CCCC[C@H](N)C(=O)O; For = O=C*

Tests used:
[1] = molecular target: yDcn1^P (potentiating neddylation / PONY domain of Saccharomyces cerevisiae Dcn1) (Saccharomyces cerevisiae) (UniProt Q12395); test: ITC, peptide titrated into yDcn1^P
[2] = molecular target: T1, yE1 for yNedd8 (Ula1-Uba3) (Saccharomyces cerevisiae, UniProt Q12059 1-462, limits assumed); test: ITC, peptide titrated into yE1
T1 construct: Heterodimeric E1 expressed in E. coli as described in earlier publications
T1 sequence 1: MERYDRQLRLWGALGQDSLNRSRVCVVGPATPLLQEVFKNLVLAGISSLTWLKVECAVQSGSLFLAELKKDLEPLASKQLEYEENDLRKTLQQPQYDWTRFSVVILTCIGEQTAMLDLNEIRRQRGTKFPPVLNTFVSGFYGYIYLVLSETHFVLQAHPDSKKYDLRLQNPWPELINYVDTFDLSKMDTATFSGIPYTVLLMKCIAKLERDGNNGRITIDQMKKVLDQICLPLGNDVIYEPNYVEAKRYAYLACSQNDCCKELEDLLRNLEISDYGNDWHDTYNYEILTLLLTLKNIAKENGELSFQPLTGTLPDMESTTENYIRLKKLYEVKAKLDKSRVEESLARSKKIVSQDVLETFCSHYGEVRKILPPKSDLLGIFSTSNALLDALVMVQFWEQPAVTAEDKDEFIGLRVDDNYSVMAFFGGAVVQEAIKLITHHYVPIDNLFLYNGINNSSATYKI
T1 sequence 2: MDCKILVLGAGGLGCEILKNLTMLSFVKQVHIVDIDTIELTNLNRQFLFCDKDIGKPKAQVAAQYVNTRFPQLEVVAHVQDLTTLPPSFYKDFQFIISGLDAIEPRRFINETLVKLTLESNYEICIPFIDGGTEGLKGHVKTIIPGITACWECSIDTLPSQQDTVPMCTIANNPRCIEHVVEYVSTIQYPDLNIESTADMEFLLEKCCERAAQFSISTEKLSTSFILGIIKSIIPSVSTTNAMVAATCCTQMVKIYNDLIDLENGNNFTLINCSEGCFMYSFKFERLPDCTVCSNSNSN
Protocol: (§1) To gain insights into mechanistic roles of Ubc12 N-terminal acetylation, isothermal titration calorimetry (ITC) was used to quantify interactions with peptides corresponding to the N-termini of yeast or human Ubc12.
(§2) Protein samples were buffer matched by desalting over a NAP-5 column (GE Healthcare) into 50 mM Hepes, 125 mM NaCl, 1 mM BME, pH 7.0 (ITC buffer). Peptides were dissolved by weight to a final concentration of 10 mM in ITC buffer and diluted further in ITC buffer as required for the experiments. […] The peptide ligands (4 mM) were constantly injected (1.5 μl). The interval time between each injection was 3 minutes and the duration of each injection was 3 seconds. […] Peptide ligands (250 μM) were constantly injected (2.5 μl). The interval time between each injection was three minutes and the duration of each injection was 5 seconds. […] The interval time between each injection was 3 minutes and the duration of each injection was 5 seconds. Obtained spectra were evaluated using Origin (V 7.0) to determine heats of binding and Kd values.

[3] = molecular target: hDcn1^P (PONY domain of human Dcn1 / DCUN1D1 / SCCRO, residues 62 to 259) (Homo sapiens) (UniProt Q96GG9); test: ITC, peptide titrated into hDcn1^P
[4] = molecular target: T2, hE1 for Nedd8 (APPBP1-UBA3, NAE1-UBA3) (Homo sapiens, UniProt Q13564 18-534; Q8TBC4 22-463, limits assumed); test: ITC, peptide titrated into hE1
T2 construct: Heterodimeric E1 expressed in E. coli as described in earlier publications
T2 sequence 1: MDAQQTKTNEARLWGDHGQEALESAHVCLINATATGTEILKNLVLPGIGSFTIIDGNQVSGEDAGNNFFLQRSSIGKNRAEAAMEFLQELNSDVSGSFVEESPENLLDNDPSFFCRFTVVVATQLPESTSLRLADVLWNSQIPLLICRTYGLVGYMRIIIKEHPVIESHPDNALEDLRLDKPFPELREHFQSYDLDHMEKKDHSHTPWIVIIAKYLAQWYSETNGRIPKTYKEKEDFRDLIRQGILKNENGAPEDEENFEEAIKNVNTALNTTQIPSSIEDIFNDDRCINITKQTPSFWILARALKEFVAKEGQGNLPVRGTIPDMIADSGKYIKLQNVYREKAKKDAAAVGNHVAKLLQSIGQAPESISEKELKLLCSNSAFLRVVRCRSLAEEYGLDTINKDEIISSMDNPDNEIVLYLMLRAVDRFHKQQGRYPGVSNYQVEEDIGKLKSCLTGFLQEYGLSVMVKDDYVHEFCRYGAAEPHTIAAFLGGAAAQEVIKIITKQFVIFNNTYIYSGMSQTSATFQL
T2 sequence 2: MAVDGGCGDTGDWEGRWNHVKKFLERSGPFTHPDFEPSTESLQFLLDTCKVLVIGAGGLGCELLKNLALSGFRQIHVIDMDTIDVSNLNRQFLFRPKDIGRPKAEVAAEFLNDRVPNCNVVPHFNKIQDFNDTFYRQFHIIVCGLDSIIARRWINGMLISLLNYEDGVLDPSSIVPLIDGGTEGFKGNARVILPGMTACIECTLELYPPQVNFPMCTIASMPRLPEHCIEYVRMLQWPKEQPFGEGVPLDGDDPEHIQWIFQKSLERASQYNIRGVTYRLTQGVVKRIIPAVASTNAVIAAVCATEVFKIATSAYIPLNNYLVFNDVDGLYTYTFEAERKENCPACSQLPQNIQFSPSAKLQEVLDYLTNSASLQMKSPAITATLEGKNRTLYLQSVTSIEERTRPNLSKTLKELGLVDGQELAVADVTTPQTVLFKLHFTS
Protocol: as §1, §2

[5] = molecular target: T3, hDcn1^P (potentiating neddylation / PONY domain of human Dcn1, DCUN1D1) (Homo sapiens, UniProt Q96GG9 62-259); test: ITC, peptide titrated into Dcn PONY domain
T3 construct: also called DCUN1D1^P; SCCRO PONY domain
Protocol: as §2

[6] = molecular target: hDcn2^P (PONY domain of human DCUN1D2) (Homo sapiens, UniProt Q6PH85 62-259); test: ITC, peptide titrated into Dcn PONY domain
Protocol: as §2

[7] = molecular target: T4, hDcn3^P (PONY domain of human DCUN1D3) (Homo sapiens, UniProt Q8IWE4 86-304); test: ITC, peptide titrated into Dcn PONY domain
T4 sequence: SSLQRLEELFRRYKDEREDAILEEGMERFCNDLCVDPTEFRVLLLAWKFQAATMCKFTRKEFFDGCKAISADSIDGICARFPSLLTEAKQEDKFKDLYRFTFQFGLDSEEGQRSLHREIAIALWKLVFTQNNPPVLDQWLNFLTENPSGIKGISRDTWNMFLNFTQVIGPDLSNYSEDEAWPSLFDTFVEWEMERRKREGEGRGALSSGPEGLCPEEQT
Protocol: as §2

[8] = molecular target: T5, hDcn4^P (PONY domain of human DCUN1D4) (Homo sapiens, UniProt Q92564 102-292); test: ITC, peptide titrated into Dcn PONY domain
T5 sequence: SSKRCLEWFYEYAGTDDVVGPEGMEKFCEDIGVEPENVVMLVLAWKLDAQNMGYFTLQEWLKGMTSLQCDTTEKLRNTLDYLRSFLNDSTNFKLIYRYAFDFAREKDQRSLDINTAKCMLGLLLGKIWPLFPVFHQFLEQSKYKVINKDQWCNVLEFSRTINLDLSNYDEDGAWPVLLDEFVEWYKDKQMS
Protocol: as §2

[9] = molecular target: T6, hDcn5^P (PONY domain of human DCUN1D5) (Homo sapiens, UniProt Q9BTE7 47-237); test: ITC, peptide titrated into Dcn PONY domain
T6 sequence: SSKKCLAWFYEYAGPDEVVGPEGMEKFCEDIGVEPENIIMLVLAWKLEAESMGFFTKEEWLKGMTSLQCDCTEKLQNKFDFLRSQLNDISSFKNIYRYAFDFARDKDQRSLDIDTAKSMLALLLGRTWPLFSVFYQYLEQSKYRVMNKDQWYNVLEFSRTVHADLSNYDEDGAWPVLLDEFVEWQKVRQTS
Protocol: as §2

[10] = molecular target: T7, yDcn1^P (potentiating neddylation / PONY domain of Saccharomyces cerevisiae Dcn1) (Saccharomyces cerevisiae, UniProt Q12395 70-269); test: ITC, peptide titrated into yDcn1^P
T7 construct: NEDD8 co-E3; Expressed in E. coli
T7 sequence: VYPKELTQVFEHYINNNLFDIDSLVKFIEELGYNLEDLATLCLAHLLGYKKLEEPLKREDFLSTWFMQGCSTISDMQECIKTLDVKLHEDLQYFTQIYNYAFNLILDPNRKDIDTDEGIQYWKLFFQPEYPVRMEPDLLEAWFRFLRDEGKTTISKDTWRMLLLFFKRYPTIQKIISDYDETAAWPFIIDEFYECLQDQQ
Protocol: (§3) The formylated peptides lack the methyl portion of an acetyl, but retain the amide and are uncharged.
as §2

[11] = molecular target: T8, hDcn1^P (PONY domain of human Dcn1 / DCUN1D1 / SCCRO, residues 62 to 259) (Homo sapiens, UniProt Q96GG9 62-259); test: ITC, peptide titrated into hDcn1^P
T8 construct: NEDD8 co-E3; Expressed as a GST fusion in E. coli; GST was removed with TEV protease; also called DCUN1D1^P
Protocol: as §3, §2

hDcn1^P (PONY domain of human Dcn1 / DCUN1D1 / SCCRO, residues 62 to 259) (Homo sapiens), sequence (Q96GG9 62-259): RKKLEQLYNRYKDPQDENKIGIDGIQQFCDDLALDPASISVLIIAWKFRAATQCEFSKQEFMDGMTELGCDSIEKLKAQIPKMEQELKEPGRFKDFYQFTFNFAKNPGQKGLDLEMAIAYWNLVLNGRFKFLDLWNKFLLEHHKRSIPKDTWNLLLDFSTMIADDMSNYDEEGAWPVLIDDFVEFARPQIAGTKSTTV
T8 sequence (Q96GG9 62-259): as above
T3 sequence (Q96GG9 62-259): as above
hDcn2^P (PONY domain of human DCUN1D2), sequence (Q6PH85 62-259 limits assumed): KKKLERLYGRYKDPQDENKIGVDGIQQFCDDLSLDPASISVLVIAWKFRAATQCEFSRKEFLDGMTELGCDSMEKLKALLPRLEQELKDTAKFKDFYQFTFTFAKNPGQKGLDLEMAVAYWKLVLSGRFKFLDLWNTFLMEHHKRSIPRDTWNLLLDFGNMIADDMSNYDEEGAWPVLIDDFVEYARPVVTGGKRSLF

B1: yUbc12^1-24 peptide (free N-terminus) (peptide)
peptide: H-MLKLRQLQKKKQKENENSSSIQPN-NH2
notes: Synthetic peptide, N-terminal extension of yeast Ubc12
N (stoichiometry) [1]: 1.16 | ΔH [1]: 3.78 kcal/mol | ΔS [1]: 33.4 cal/mol/deg | Kd [2]: 0.07 µM | N (stoichiometry) [2]: 1.05 | ΔH [2]: -8.57 kcal/mol | ΔS [2]: 2.65 cal/mol/deg

B2: hUbc12^1-26 peptide (free N-terminus) (peptide)
peptide: H-MIKLFSLKQQKKEEESAGGTKGSSKK-NH2
notes: Synthetic peptide, N-terminal extension of human Ubc12 (UBE2M)
N (stoichiometry) [3]: 0.75 | ΔH [3]: 1.26 kcal/mol | ΔS [3]: 22.2 cal/mol/deg | Kd [4]: 0.585 µM | N (stoichiometry) [4]: 1.29 | ΔH [4]: -8.88 kcal/mol | ΔS [4]: -1.99 cal/mol/deg

B3: hUbc12^Ac1-26 (peptide)
peptide: Ac-MIKLFSLKQQKKEEESAGGTKGSSKK-NH2
notes: Synthetic peptide of the N-terminus of human Ubc12; also called Acetyl-hUbc12^1-26
Kd [5]: 1.5 µM | Kd [6]: 0.735 µM | Kd [7]: 10.8 µM | Kd [8]: 10 µM | Kd [9]: 8.6 µM

Ac-MIKLFSLKQQKK-NH2 (also called Acetyl-hUbc12^1-12) [hUbc12^Ac1-12]
Kd [7]: 6.3 µM | Kd [8]: 13.1 µM

B4: yUbc12^Ac1-12 (NorLeu) 6, 10 (peptide)
peptide: Ac-[Nle]LKLR[S5]LQK[S5]KQ-NH2
modifications: staple 6-10
SMILES: CCCC[C@H](NC(C)=O)C(=O)N[C@@H](CC(C)C)C(=O)N[C@@H](CCCCN)C(=O)N[C@@H](CC(C)C)C(=O)N[C@@H](CCCNC(=N)N)C(=O)N[C@@]1(C)CCCC=CCCC[C@@](C)(C(=O)N[C@@H](CCCCN)C(=O)N[C@@H](CCC(N)=O)C(N)=O)NC(=O)[C@H](CCCCN)NC(=O)[C@H](CCC(N)=O)NC(=O)[C@H](CC(C)C)NC1=O
Kd [5]: 0.068 µM | Kd [6]: 0.075 µM | Kd [7]: 1.76 µM | Kd [8]: 4.3 µM | Kd [9]: 4.78 µM

B5: Formyl-yUbc12^1-24 peptide (peptide)
peptide: For-MLKLRQLQKKKQKENENSSSIQPN-NH2
SMILES: CC[C@H](C)[C@H](NC(=O)[C@H](CO)NC(=O)[C@H](CO)NC(=O)[C@H](CO)NC(=O)[C@H](CC(N)=O)NC(=O)[C@H](CCC(=O)O)NC(=O)[C@H](CC(N)=O)NC(=O)[C@H](CCC(=O)O)NC(=O)[C@H](CCCCN)NC(=O)[C@H](CCC(N)=O)NC(=O)[C@H](CCCCN)NC(=O)[C@H](CCCCN)NC(=O)[C@H](CCCCN)NC(=O)[C@H](CCC(N)=O)NC(=O)[C@H](CC(C)C)NC(=O)[C@H](CCC(N)=O)NC(=O)[C@H](CCCNC(=N)N)NC(=O)[C@H](CC(C)C)NC(=O)[C@H](CCCCN)NC(=O)[C@H](CC(C)C)NC(=O)[C@H](CCSC)NC=O)C(=O)N[C@@H](CCC(N)=O)C(=O)N1CCC[C@H]1C(=O)N[C@@H](CC(N)=O)C(N)=O
notes: Synthetic peptide
Kd [10]: 7.46 µM | ΔH [10]: 2.82 kcal/mol | ΔS [10]: 33.4 cal/mol/deg

B6: Formyl-hUbc12^1-26 peptide (peptide)
peptide: For-MIKLFSLKQQKKEEESAGGTKGSSKK-NH2
SMILES: CC[C@H](C)[C@H](NC(=O)[C@H](CCSC)NC=O)C(=O)N[C@@H](CCCCN)C(=O)N[C@@H](CC(C)C)C(=O)N[C@@H](Cc1ccccc1)C(=O)N[C@@H](CO)C(=O)N[C@@H](CC(C)C)C(=O)N[C@@H](CCCCN)C(=O)N[C@@H](CCC(N)=O)C(=O)N[C@@H](CCC(N)=O)C(=O)N[C@@H](CCCCN)C(=O)N[C@@H](CCCCN)C(=O)N[C@@H](CCC(=O)O)C(=O)N[C@@H](CCC(=O)O)C(=O)N[C@@H](CCC(=O)O)C(=O)N[C@@H](CO)C(=O)N[C@@H](C)C(=O)NCC(=O)NCC(=O)N[C@H](C(=O)N[C@@H](CCCCN)C(=O)NCC(=O)N[C@@H](CO)C(=O)N[C@@H](CO)C(=O)N[C@@H](CCCCN)C(=O)N[C@@H](CCCCN)C(N)=O)[C@@H](C)O
notes: Synthetic peptide; also called hUbc12^Formyl-1-26
Kd [11]: 9.71 µM | ΔH [11]: -4.89 kcal/mol | ΔS [11]: 5.79 cal/mol/deg
